Experimental data: PMC4413028 (Science (New York, N.Y.), 2015)

B1: Get3(D57N) (native, full-length S. cerevisiae Get3, ATP hydrolysis mutant) (natural protein)
chain: MDLTVEPNLHSLITSTTHKWIFVGGKGGVGKTTSSCSIAIQMALSQPNKQFLLISTNPAHNLSDAFGEKFGKDARKVTGMNNLSCMEIDPSAALKDMNDMAVSRANNNGSDGQGDDLGSLLQGGALADLTGSIPGIDEALSFMEVMKHIKRQEQGEGETFDTVIFDTAPTGHTLRFLQLPNTLSKLLEKFGEITNKLGPMLNSFMGAGNVDISGKLNELKANVETIRQQFTDPDLTTFVCVCISEFLSLYETERLIQELISYDMDVNSIIVNQLLFAENDQEHNCKRCQARWKMQKKYLDQIDELYEDFHVVKMPLCAGEIRGLNNLTKFSQFLNKEYNPITDGKVIYELEDKE
B2: Get3 (S. cerevisiae, wild-type) co-expressed with 6xHis-Pep12(262-288) (natural protein)
chain: MDLTVEPNLHSLITSTTHKWIFVGGKGGVGKTTSSCSIAIQMALSQPNKQFLLISTDPAHNLSDAFGEKFGKDARKVTGMNNLSCMEIDPSAALKDMNDMAVSRANNNGSDGQGDDLGSLLQGGALADLTGSIPGIDEALSFMEVMKHIKRQEQGEGETFDTVIFDTAPTGHTLRFLQLPNTLSKLLEKFGEITNKLGPMLNSFMGAGNVDISGKLNELKANVETIRQQFTDPDLTTFVCVCISEFLSLYETERLIQELISYDMDVNSIIVNQLLFAENDQEHNCKRCQARWKMQKKYLDQIDELYEDFHVVKMPLCAGEIRGLNNLTKFSQFLNKEYNPITDGKVIYELEDKE

Key:
SEC-MALS [1] = molecular target: the molecule itself; assay: SEC-MALS
[2] = molecular target: B2; assay: SEC-MALS
[3] = molecular target: B1; assay: crystal structure
SEC-MALS [4] = molecular target: the molecule itself; assay: SEC-MALS; remark: listed apart in the source
[5] = molecular target: the molecule itself; assay: sucrose gradient sedimentation

Binder | stoichiometry N (SEC-MALS [1]) | binding result [3] | also measured
B1 | 2 | – | –
KRTSRWRVYLLIVLLVMLLFIFLIMKL (domain or fragment) [Pep12(262-288), truncated TA substrate with N-terminal 6xHis tag] | – | binds | binding result [2]: binds
B2 | 4 | – | –
6xHis-tagged Get3(D57N) (natural protein) MDLTVEPNLHSLITSTTHKWIFVGGKGGVGKTTSSCSIAIQMALSQPNKQFLLISTNPAHNLSDAFGEKFGKDARKVTGMNNLSCMEIDPSAALKDMNDMAVSRANNNGSDGQGDDLGSLLQGGALADLTGSIPGIDEALSFMEVMKHIKRQEQGEGETFDTVIFDTAPTGHTLRFLQLPNTLSKLLEKFGEITNKLGPMLNSFMGAGNVDISGKLNELKANVETIRQQFTDPDLTTFVCVCISEFLSLYETERLIQELISYDMDVNSIIVNQLLFAENDQEHNCKRCQARWKMQKKYLDQIDELYEDFHVVKMPLCAGEIRGLNNLTKFSQFLNKEYNPITDGKVIYELEDKE | – | – | stoichiometry N (SEC-MALS [4]): 2
KINFDLLISQYAPIVIVAFFFVFLFWWIFLK (domain or fragment) [Sec22(184-214), truncated TA substrate with N-terminal 6xHis tag] | – | binds | –
Get3 (S. cerevisiae, full-length, wild-type) (natural protein) MDLTVEPNLHSLITSTTHKWIFVGGKGGVGKTTSSCSIAIQMALSQPNKQFLLISTDPAHNLSDAFGEKFGKDARKVTGMNNLSCMEIDPSAALKDMNDMAVSRANNNGSDGQGDDLGSLLQGGALADLTGSIPGIDEALSFMEVMKHIKRQEQGEGETFDTVIFDTAPTGHTLRFLQLPNTLSKLLEKFGEITNKLGPMLNSFMGAGNVDISGKLNELKANVETIRQQFTDPDLTTFVCVCISEFLSLYETERLIQELISYDMDVNSIIVNQLLFAENDQEHNCKRCQARWKMQKKYLDQIDELYEDFHVVKMPLCAGEIRGLNNLTKFSQFLNKEYNPITDGKVIYELEDKE | – | – | stoichiometry N [5]: 2
